Measurements reported in IntAct's records for PubMed 20956536.

B1: Coiled-coil domain-containing protein 141 (Homo sapiens), Q6ZP82-1 (parent)
chain: MSSQGSPSVALSTTTVSSVAVQAGDSKIVIAVIKCGKWVQLQLAESQPNLLEIGSSQDETKKLLHDHELLLAKLKALEDRVWELLQEADKTAEENKDQSQVYDAMAETLGEAWAALVSMLERRTELLRLTSEFFENALEFAIKIDQAEDFLQNTHEFESAESLKSLLQLHEHHTKELLERSLALLNKSQQLTDFIEKFKCEGPNVNPELTQGAHSSCLKVDRLLELLQDRRRQLDKYLKQQWQELSQVLQICQWDQQENQVTCWFQKTIRNLQEQSLGSSLSDNEDRIHKQEELIIKAKEWNSAVEKLKSEALRILLSKDYVEKEHLQLSHQKLSQLQEEFGQLMVERNTWLKKANEFFNSANKAFDVLGRVEAYLKLLKSEGLSLAVLAVRHEELHRKIKDCTTDALQKGQTLISQVDSCSSQVSGIHEMMGCIKRRVDHLTEQCSAHKEYALKKQQLTASVEGYLRKVEMSIQKISPVLSNAMDVGSTRSESEKILNKYLELDIQAKETSHELEAAAKTMMEKNEFVSDEMVSLSSKARWLAEELNLFGQSIDYRSQVLQTYVAFLKSSEEVEMQFQSLKEFYETEIPQKEQDDAKAKHCSDSAEKQWQLFLKKSFITQDLGLEFLNLINMAKENEILDVKNEVYLMKNTMENQKAEREELSLLRLAWQLKATESKPGKQQWAAFKEQLKKTSHNLKLLQEALMPVSALDLGGSLQFILDLRQKWNDMKPQFQQLNDEVQYIMKESEELTGRGAPVKEKSQQLKDLIHFHQKQKERIQDYEDILYKVVQFHQVKEELGRLIKSRELEFVEQPKELGDAHDVQIHLRCSQEKQARVDHLHRLALSLGVDIISSVQRPHCSNVSAKNLQQQLELLEEDSMKWRAKAEEYGRTLSRSVEYCAMRDEINELKDSFKDIKKKFNNLKFNYTKKNEKSRNLKALKYQIQQVDMYAEKMQALKRKMEKVSNKTSDSFLNYPSDKVNVLLEVMKDLQKHVDDFDKVVTDYKKNLDLTEHFQEVIEECHFWYEDASATVVRVGKYSTECKTKEAVKILHQQFNKFIAPSVPQQEERIQEATDLAQHLYGLEEGQKYIEKIVTKHKEVLESVTELCESLTELEEKLKQGDVLKMNPNLEDFHYDYIDLLKEPAKNKQTIFNEERNKGQVQVADLLGINGTGEERLPQDLKVSTDKEGGVQDLLLPEDMLSGEEYECVSPDDISLPPLPGSPESPLAPSDMEVEEPVSSSLSLHISSYGVQAGTSSPGDAQESVLPPPVAFADACNDKRETFSSHFERPYLQFKAEPPLTSRGFVEKSTALHRISAEHPESMMSEVHERALQQHPQAQGGLLETREKMHADNNFTKTQDRLHASSDAFSGLRFQSGTSRGYQRQMVPREEIKSTSAKSSVVSLADQAPNFSRLLSNVTVMEGSPVTLEVEVTGFPEPTLTWWVAYNDKP
partner: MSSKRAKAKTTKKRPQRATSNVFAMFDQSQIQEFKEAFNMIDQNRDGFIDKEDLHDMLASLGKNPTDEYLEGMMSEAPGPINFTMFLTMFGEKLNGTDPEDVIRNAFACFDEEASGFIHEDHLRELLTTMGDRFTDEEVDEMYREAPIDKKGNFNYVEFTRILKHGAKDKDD
B2: Coiled-coil domain-containing protein 141 (Homo sapiens), Q6ZP82-1 (parent)
chain: B1 chain
partner: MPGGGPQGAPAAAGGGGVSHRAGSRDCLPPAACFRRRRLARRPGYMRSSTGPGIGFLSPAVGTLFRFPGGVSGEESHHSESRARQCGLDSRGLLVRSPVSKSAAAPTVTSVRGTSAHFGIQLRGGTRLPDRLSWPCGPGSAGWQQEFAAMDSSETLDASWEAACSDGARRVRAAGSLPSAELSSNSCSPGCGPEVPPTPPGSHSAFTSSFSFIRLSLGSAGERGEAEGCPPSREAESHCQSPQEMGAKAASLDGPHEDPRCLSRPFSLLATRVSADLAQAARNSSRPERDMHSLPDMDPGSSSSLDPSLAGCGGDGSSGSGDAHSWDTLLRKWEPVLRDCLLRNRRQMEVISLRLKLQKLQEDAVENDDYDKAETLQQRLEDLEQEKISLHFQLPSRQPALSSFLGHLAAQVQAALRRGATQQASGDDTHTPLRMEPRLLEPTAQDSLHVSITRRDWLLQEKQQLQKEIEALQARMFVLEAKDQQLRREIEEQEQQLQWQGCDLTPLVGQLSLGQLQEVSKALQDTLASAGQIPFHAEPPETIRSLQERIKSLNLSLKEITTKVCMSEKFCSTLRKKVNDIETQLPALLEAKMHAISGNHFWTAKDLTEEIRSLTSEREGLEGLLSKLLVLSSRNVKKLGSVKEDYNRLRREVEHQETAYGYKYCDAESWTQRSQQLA
B3: Myosin regulatory light polypeptide 9 (Homo sapiens), P24844 (parent)
chain: B1 partner

Variants of: B1
Conditions: with myl9_human MYL9, P24844

effect of a mutation on the interaction	Variant
disrupting interaction strength	R828W

Variants of: B2
Conditions: with DISC1, Q9NRI5-3

effect of a mutation on the interaction	Variant
with no effect	R828W

Variants of: B3
Conditions: with cc141_mouse Ccdc141, E9Q8Q6
Chain of cc141_mouse Ccdc141, E9Q8Q6 (E9Q8Q6 whole entry): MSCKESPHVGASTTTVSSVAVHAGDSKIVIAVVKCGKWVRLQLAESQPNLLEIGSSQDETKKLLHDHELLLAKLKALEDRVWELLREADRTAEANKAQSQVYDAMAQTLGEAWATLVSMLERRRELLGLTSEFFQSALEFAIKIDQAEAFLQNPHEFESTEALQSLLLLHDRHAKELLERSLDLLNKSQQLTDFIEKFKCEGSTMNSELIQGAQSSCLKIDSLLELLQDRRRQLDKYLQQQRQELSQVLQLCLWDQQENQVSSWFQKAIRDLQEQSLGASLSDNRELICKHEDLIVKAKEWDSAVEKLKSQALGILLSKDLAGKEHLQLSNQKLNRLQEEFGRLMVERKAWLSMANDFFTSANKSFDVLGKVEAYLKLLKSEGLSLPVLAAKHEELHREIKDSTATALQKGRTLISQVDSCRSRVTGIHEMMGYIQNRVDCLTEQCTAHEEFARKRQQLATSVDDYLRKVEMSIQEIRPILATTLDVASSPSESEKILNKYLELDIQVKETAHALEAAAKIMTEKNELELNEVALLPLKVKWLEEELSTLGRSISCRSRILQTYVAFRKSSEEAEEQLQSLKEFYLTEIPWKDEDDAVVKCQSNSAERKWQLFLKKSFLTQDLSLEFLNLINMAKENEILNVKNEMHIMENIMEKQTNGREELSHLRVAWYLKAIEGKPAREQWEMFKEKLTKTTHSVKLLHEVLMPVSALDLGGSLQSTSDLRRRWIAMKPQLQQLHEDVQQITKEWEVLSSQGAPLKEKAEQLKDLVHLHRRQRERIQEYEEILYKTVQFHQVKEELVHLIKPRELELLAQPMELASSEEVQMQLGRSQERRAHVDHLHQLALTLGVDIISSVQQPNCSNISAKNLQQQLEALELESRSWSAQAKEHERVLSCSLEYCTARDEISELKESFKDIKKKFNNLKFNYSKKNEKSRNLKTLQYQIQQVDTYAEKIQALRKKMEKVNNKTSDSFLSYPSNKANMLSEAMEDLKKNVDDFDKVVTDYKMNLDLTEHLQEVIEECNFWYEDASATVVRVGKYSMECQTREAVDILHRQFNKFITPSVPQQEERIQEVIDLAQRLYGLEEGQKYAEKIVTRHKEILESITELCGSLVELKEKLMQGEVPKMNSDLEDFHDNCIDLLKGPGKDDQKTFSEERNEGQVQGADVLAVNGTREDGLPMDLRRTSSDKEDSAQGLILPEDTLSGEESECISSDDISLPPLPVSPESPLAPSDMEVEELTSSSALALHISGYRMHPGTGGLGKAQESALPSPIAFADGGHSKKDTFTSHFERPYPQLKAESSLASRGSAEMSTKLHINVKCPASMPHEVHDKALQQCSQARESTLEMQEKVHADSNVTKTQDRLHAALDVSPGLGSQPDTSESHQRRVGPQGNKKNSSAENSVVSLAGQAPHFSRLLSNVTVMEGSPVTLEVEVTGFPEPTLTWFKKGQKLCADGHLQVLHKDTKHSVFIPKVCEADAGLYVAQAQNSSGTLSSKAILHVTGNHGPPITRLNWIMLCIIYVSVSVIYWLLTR

effect of a mutation on the interaction	Variant
increasing interaction strength	T19D;S20D
disrupting interaction strength	T19A;S20A
